Measured values reported in the domain aggregation screens of Martell et al. (2025).

Test: soluble fraction after stress (log2 fold change); higher = more stays soluble; pooled small domains, quantitative proteomics
Settings: stress: 50 degC
Outline: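 Custom libraries of small protein domains were pooled and measured in a high-throughput format, with quantitative proteomics as the read-out. Each library was stressed at 50°C. The value is the log2 fold change in the amount of each protein that stays soluble after stress, used as a measure of aggregation propensity; higher values mean more of the protein stays soluble.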

Sequence	soluble fraction (log2)
HMLTRQRKQLLEYLSKHTDEQMTARQIADALTAESISISAVYRNLSALEEEGILKRSIRENTREVYYQYIA	-0.973
HMDAVSTMIENLRVKTGKSLADWVGLAKGSGADKHGAMVGWLKSEHGLTHGYANLIAHETFRSAA	0.0392
HMYPMQNYSTIIGVIELRQQSVGYATTQKRYGIGSSTVTLIMKRFKELGLTLEELRAMPPKAVEVAFYPPE	-1.11
HMNPNPYIVLGVDKSMPFGEIKKVYQRKRREFHPDSLVAKGLPDELLQKAQDKFIAIQEAYKSIEKNQV	0.317
HMSDRESYGRYRNVSLTLSEYESLKNEYPLYADKYIERLSEYMETAGKHYNNHYATILSWLSKDIK	-0.487
HMANYTVNAYNNGGTGGSVNMRSGPSTNDGIVVRVPHGATVTGTKSGTWSYMTYNTYTGYMMSVYLDEQS	-0.157
HMGKREKTKVANRQAILVAARAVFAELGYEAATVRDIIRGTDLASGTFYNYFKSKEEVFDALADDGA	-1.17
HMEQVLNVAVRRGELIMSSAAEQTVRIYSSAGSMVWQGKVSASDVTVELPSGVYVVNGKKVV	-1.19
HMSDLTEVIVKFSGDIQPIRQDLDAQVEILLKGYAIITLSPNKIGRLYSYPQIESIEIPKNLYI	-1.26
HMISKYLRIESDILSAIREGRLKPGDKLPGQSEMRRIYNVSAITVRKAFTDLINDGYLVGVRGSGTYVAKR	-0.703
HMFNDGEIAIYTDPRGDAGETQIWKRGKGYYGQNDSFDFEAKDKKELEMKLKRWGYVLIAGSIDE	-0.291
HMSQLTVGTVVTGNASLQTQGLKLPSFASGSRPASPNIGQMIWNSSDAKAQIWNGSEWDDVG	-0.198
HMEAISSESIKKMIKSYVSGEDASKPLSDQQIADLLVKEGYMISRRTVAKYRDELGILSSSKRKR	-0.0456
HMQLPIGDVKLSVEHLSSGTALQDISFEVHRGEIFGFLGLVGAGRSETAETIFGLREKTDGKISIDGTVL	-0.214
HMIRQGTKQALLIEMLQRPEGASITEIVEATSWQAHTARGAISGALKKKLGLPITSEKHPERGTVYKL	-0.685
HMGTEITEQRAKEIALENAKVAESDVTAMRVKKEMDDGVWRYDVEFYVQNKEYDYEINAMDGTILSVDYD	-0.04
HMTTTPTSQMVTELRSRGWTLRALAQRLGVGHASINRWANGVTPDRDLVAALRALVASGEVP	-0.216
HMIDIGSKIKKLRSKKSIEIGKKYTGAMLANELGISRSYLGDIESGRTVPNEIILGKIADIFDVDIYELIG	-0.256
HMKHVDLDNNERYIYGIIGSTKIHVDEVVEKSGMETKHVMAILTNLELKEAIKGIPGGFYLR	-0.506

Sequence	soluble fraction (log2)
HMRQIMIIVLKSTATKEDSLLFKNKLEQEYGVKVNEWTGVESTVLGLIGDTTKIDIDYISAQDIVESVKRV	0.252
HMKFPIITAKQDSDGKFYWAQTTDKGKTYTFILDGDGKKFPIGGTMPDVKINENGYWSVNGSSTGVLANDL	0.0311
HMKPSTVSVPDVSGDKLSTAKMIIRKSGLKVGDVQKIEDDNVGAGKVVRTNPSAGSKKREGSSVDIFVASA	0.16
HMIPRGFSRYYILELLQKKPHTGKEIIDNAIKESGGRWNPSPGLIYPLLGRLLDENLIEETNDGKYK	-1.72
HMPKETFLNLDEEKRQAIINVLLKNFSEQHISQVKVSAIVSGIGMSRGAFYKYFEDLEDAYRFTISYFSA	-0.0102
HMTGVPYLVRVKITDLHIRSGPGTNYASKGFIAPGAYTIVEESTGQGAALWGKLKSGKGWIALGYTEK	-1.09
HMLSPPWYEYHRKVQAMFGRDPEVHIKDLDDLGDGKFSYMILVYNKEKAEAIKAILPQKVEMGNVTIETAI	0.361
HMGFALLIAIERTGNTTYFVKLTLIKKGSDSDVLKDSFSVSQGDLVGTATYDSVIANRIREKTAAMWQKAT	-2.13
HMGLSARIAQRIHGLRTAQRMSLEALAARSGVSRSMISLIERNEASPTAVVLEKIATGLNVVLAALFDTP	-1.29
HMRGFGYVRRLPSKRYQASYAGPDLQRHVAPTTFTTKADAESWLGAERKVVESGSWRPPAVREAEARLS	0.357
HMARDPWDVLGVAKTATNDEIKRAFKRQAMMTHPDKQGGSEERFKEVNEAYSHIKDEQSRAKYQNSQ	0.238
HMKNNAIAPDQVVSLLKNEVNYNDDGRIEILDNNKNIRYNSKGELLTIEERVNEFLDANPHFRK	-0.119
HMDEPSITYGKVKVQTSLNVRQGPGTQYARIGSLGPNVRIQILGQEGQWYKIKYGNLQGYVHSDYVELEK	0.0784
HMSQDTLIENGKVFLIHKVVAGQTLYGLSKAYNITIEDIIKYNPQAENGIKIGEDIKIFLKEE	-0.432
HMQIAGLDDIDNRIIDLLLKNGRASYSEIGAAVGLSRTAAKNRIRALEASGIIRGYQAILDPQA	-0.205
HMDSTTHALALVRTLPRDQAEAVLLRVVADLDYADVAEIMGRSPGAVRVLVHRGLRRLEQELATRRT	-0.465
HMTETSKLTDAKQLLESILSSGEVSYKDIISAAEEYEIGKRTLMSAKALLSIESIKKTDGWYWTLPH	-0.213
HMSEQMQVGELVFQLHRKAIKNLHINVLPPDGFVRVSAPQAMTETAIRTAVISRLPWIRRQQQAFAAQ	-2.12
HMRYNPETTAGRRGLIIKMLDEYGQVNVNELSRYFNVSEVTVRNDLAYLERKNLLIRARGGAIKTE	-0.941
